For this series, the target named is TDP-43 (His-TDP-43 wild type) (UniProt Q13148 1-414). The series is described as follows: EMSA; EMSA: LightShift Chemiluminescent RNA EMSA Kit (Thermo), per manufacturer; buffer, salt, pH and temperature not stated. As to conditions: protein: recombinant; tags: His tag; text says C-terminal (pEASY-E2); label: biotin. In general terms: Mobility shift assays separate free from complexed probe on a gel.
TDP-43 (His-TDP-43 wild type), sequence (Q13148 whole entry): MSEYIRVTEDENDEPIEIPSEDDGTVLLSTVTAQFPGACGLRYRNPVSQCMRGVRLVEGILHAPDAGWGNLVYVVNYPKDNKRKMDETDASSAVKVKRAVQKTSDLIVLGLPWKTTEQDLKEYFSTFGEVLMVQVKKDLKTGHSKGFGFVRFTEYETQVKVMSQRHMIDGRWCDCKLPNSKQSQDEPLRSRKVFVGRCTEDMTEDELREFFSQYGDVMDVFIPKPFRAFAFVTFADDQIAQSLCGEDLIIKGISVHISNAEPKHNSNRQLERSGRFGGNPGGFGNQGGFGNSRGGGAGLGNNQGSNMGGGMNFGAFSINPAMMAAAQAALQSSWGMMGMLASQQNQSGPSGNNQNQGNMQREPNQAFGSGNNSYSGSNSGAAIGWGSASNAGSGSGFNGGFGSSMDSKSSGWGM

B1: miR-423-3p (ssRNA)
RNA: AGCUCGGUCUGAGGCCCCUCAGU
Regarding B1, the binding result is recorded as “binds”.

B2: miR-500a-3p (ssRNA)
RNA: AUGCACCUGGGCAAGGAUUCUG
For B2, the binding result is “binds”.

B3: miR-574-3p (ssRNA)
RNA: CACGCUCAUGCACACACCCACA
As to B3, the binding result is “no binding”.

For the origin of these results see publication PMC6160384, “TDP-43 regulates cancer-associated microRNAs”.
